# Laboratory results: publication PMC10077475, “DG9-conjugated morpholino rescues phenotype in SMA mice by reaching the CNS via a subcutaneous administration” (JCI Insight, 2023)
# Read-outs that look alike come from different tables or passages of the source.
# Columns and labels:
# [1] = Hybridization-based ELISA, PMO concentration in tissues of severe SMA mice; format: in vivo; conditions: mouse, sc, 40 mg/kg s.c. at PD0, PD7 mice
# Description: To determine the effects of DG9 peptide in increasing PMO uptake, we evaluated the biodistribution of unconjugated PMO and DG9-PMO in the peripheral and CNS tissues. We used a well-established hybridization-based ELISA designed specifically to detect the PMO to compare the concentration of DG9-PMO and unconjugated PMO in the tissues of treated PD7 mice ([51]).
# ELISA was performed as described previously ([51], [69]). In brief, protein was extracted from frozen tissue sections (~20 μm) using RIPA buffer with cOmplete, Mini, EDTA-free protease inhibitor cocktail. The probes (Integrated DNA Technologies) were designed complementary to the PMO sequence with phosphorothioated backbones at the 5′ and 3′ ends. The 5′ and 3′ ends were labeled with digoxigenin and biotin, respectively. The tissue lysates (0.02 mg/mL protein concentration) were pretreated with 2.5 mg/mL trypsin containing 10 mM CaCl2 at 37°C overnight to digest the DG9 peptide. The probes were added to the samples and allowed to hybridize at 37°C for 30 minutes. Following the probe-PMO hybridization, the hybridized mixtures were added to Pierce NeutrAvidin Coated 96-Well Plates, Black (Thermo Fisher Scientific), to allow avidin-biotin interaction between the plate and the probes. The unhybridized probes were digested using micrococcal nuclease enzyme at 0.1 gel unit/μL (New England Biolabs). This was followed by the addition of an anti-digoxigenin antibody conjugated with ALP 1:5,000 (11093274910, Roche Applied Sciences). Attophos AP Fluorescent Substrate (Promega) was added to the PMO/DG9-PMO probes, and fluorescence was detected at 444 nm excitation and 555 nm emission by using a monochromator SpectraMax M3 plate reader (Molecular Devices).
# severe SMA mouse model = test: Forelimb grip strength; format: in vivo; conditions: 40 mg/kg s.c. at PD0, normalized to body weight
# Description: This improvement was further bolstered by the forelimb grip strength assessment at PD30 in the DG9-PMO–treated mice (Figure 1E and Supplemental Figure 2A). […] We evaluated the relationship between the forelimb data and the sex at PD30. […] We also performed a rotarod test PD30 for the 40 mg/kg groups to assess their overall muscle coordination and balance ([41]). We observed that although the unconjugated PMO–treated mice had reduced forelimb grip strength, they were able to balance themselves on the rotating beam similar to DG9-PMO–treated mice owing to their smaller size and weight (Supplemental Figure 2C). Since we had only 2 MOE mice in this experiment, they were not included in the statistics. Taken together, based on conclusive findings from these functional tests, systemic injection of DG9-PMO improves motor function and muscle strength in both neonatal and adult SMA mice.
# This assay was conducted as described in Treat NMD protocol SMA_M.2.1.002 ([73]). In short, the mouse is placed on the wire mesh of an automated grip strength meter (Columbus Instruments) such that only the front paws are allowed to grip the metal grid. The mouse is steadily pulled with the help of its tail, such that it lets go of the grid completely. PD30 and PD60 mice were used. Each mouse underwent 3 trials.
# CD68+ macrophages = test: CD68+ macrophage detection in quadriceps muscle; format: in vivo, mouse; conditions: 40 mg/kg s.c. at PD0, quadriceps muscle sections at PD7
# From the text: Peptides can typically pose as antigens, leading to immune reactions. Therefore, we examined the susceptibility of DG9-PMO to cause immune activation at an early neonatal stage, by looking at CD68^+ cells, indicative of circulating and tissue macrophages, in the quadriceps muscle sections at PD7 (Supplemental Figure 9, A and B). […] The apparent reduction in circulating macrophages following DG9-PMO treatment is likely due to amelioration of the atrophic musculature, which would compensate for any elevation seen from the treatment itself.
# Cryosections (7 μm) of the quadriceps muscle were fixed with 4% PFA. The sections were incubated with rat anti-mouse CD68 antibody (MCA1957T, Bio-Rad). The number of CD68^+ cells was counted and averaged from at least 5 sections per sample at random intervals at 20× original magnification.
# [2] = ELISA, PMO uptake in mild SMA model (F0 mice) injected at PD5; format: in vivo, mouse; conditions: 40 mg/kg s.c. at PD5, tissues at PD7, ELISA
# From the text: To target the motor neurons in the CNS via systemic administration, AOs need to cross the BBB in patients with SMA. For this study, we used a milder SMA model (F0) (Smn^–/– SMN2^+/+) with 4 SMN2 copies obtained from Jackson Laboratory (JAX 005058) that are viable, are fertile, and have shortened, thick tails since severe SMA model mice have a median survival of only 8 days, making it difficult to evaluate the treatment efficacy when the BBB is mature. […] To determine the ability of DG9-PMO to reach the CNS, we subcutaneously injected 40 mg/kg or 80 mg/kg fluorescently tagged DG9-PMO into F0 mice at PD0 or PD5. […] We also performed an ELISA to examine the biodistribution of unconjugated PMO and DG9-PMO at PD7.
# ELISA was performed as described previously ([51], [69]). In brief, protein was extracted from frozen tissue sections (~20 μm) using RIPA buffer with cOmplete, Mini, EDTA-free protease inhibitor cocktail. The probes (Integrated DNA Technologies) were designed complementary to the PMO sequence with phosphorothioated backbones at the 5′ and 3′ ends. The 5′ and 3′ ends were labeled with digoxigenin and biotin, respectively. […] Attophos AP Fluorescent Substrate (Promega) was added to the PMO/DG9-PMO probes, and fluorescence was detected at 444 nm excitation and 555 nm emission by using a monochromator SpectraMax M3 plate reader (Molecular Devices).
smiles,measurement,setting,value
CC(=O)N[C@@H](Cc1ccc(O)cc1)C(=O)N[C@@H](C)C(=O)N[C@H](CCCNC(=N)N)C(=O)N[C@H](C(=O)N[C@@H](CCCNC(=N)N)C(=O)N[C@@H](CCCNC(=N)N)C(=O)N[C@H](CCCNC(=N)N)C(=O)NCC(=O)N1CCC[C@H]1C(=O)N[C@@H](CCCNC(=N)N)C(=O)NCC(=O)N[C@@H](Cc1ccc(O)cc1)C(=O)N[C@@H](C)C(=O)N[C@H](CCCNC(=N)N)C(=O)N[C@H](C(=O)N[C@@H](CCCNC(=N)N)C(=O)N[C@@H](CCCNC(=N)N)C(=O)N[C@H](CCCNC(=N)N)C(=O)NCC(=O)N1CCC[C@H]1C(=O)N[C@@H](CCCNC(=N)N)C(=O)N[C@H](CCCNC(=N)N)C(=O)N1C[C@@H](COP(=O)(N(C)C)N2C[C@@H](COP(=O)(N(C)C)N3C[C@@H](COP(=O)(N(C)C)N4C[C@@H](COP(=O)(N(C)C)N5C[C@@H](COP(=O)(N(C)C)N6C[C@@H](COP(=O)(N(C)C)N7C[C@@H](COP(=O)(N(C)C)N8C[C@@H](COP(=O)(N(C)C)N9C[C@@H](COP(=O)(N(C)C)N%10C[C@@H](COP(=O)(N(C)C)N%11C[C@@H](COP(=O)(N(C)C)N%12C[C@@H](COP(=O)(N(C)C)N%13C[C@@H](COP(=O)(N(C)C)N%14C[C@@H](COP(=O)(N(C)C)N%15C[C@@H](COP(=O)(N(C)C)N%16C[C@@H](COP(=O)(N(C)C)N%17C[C@@H](COP(=O)(N(C)C)N%18C[C@@H](COP(=O)(N(C)C)N%19CCC(C(N)=O)CC%19)O[C@@H](n%19cc(C)c(=O)[nH]c%19=O)C%18)O[C@@H](n%18ccc(N)nc%18=O)C%17)O[C@@H](n%17cnc%18c(N)ncnc%18%17)C%16)O[C@@H](n%16ccc(N)nc%16=O)C%15)O[C@@H](n%15cc(C)c(=O)[nH]c%15=O)C%14)O[C@@H](n%14cc(C)c(=O)[nH]c%14=O)C%13)O[C@@H](n%13cc(C)c(=O)[nH]c%13=O)C%12)O[C@@H](n%12ccc(N)nc%12=O)C%11)O[C@@H](n%11cnc%12c(N)ncnc%12%11)C%10)O[C@@H](n%10cc(C)c(=O)[nH]c%10=O)C9)O[C@@H](n9cnc%10c(N)ncnc%109)C8)O[C@@H](n8cnc9c(N)ncnc98)C7)O[C@@H](n7cc(C)c(=O)[nH]c7=O)C6)O[C@@H](n6cnc7c(=O)[nH]c(N)nc76)C5)O[C@@H](n5ccc(N)nc5=O)C4)O[C@@H](n4cc(C)c(=O)[nH]c4=O)C3)O[C@@H](n3cnc4c(=O)[nH]c(N)nc43)C2)O[C@@H](n2cnc3c(=O)[nH]c(N)nc32)C1)C(C)C)C(C)C (stereo partly drawn) [DG9-PMO],level at time molar at 7 days after dosing (PD7),"[1]; brain, n = 5, read-out: average AO detection, brain",8.36 nM
same,level at time molar at 7 days after dosing (PD7),"[1]; heart, n = 4, read-out: average AO detection, heart",8.89 nM
same,level at time molar at 7 days after dosing (PD7),"[1]; kidney, n = 6, read-out: average AO detection, kidney",20000 nM
same,level at time molar at 7 days after dosing (PD7),"[1]; liver, n = 5, read-out: average AO detection, liver",200000 nM
same,level at time molar at 7 days after dosing (PD7),"[1]; quadriceps muscle, n = 5, read-out: average AO detection, quadriceps muscle",12.2 nM
same,level at time molar at 7 days after dosing (PD7),"[1]; spinal cord, n = 4, read-out: average AO detection, spinal cord",13.9 nM
same,forelimb grip force at PD30,severe SMA mouse model,forelimb grip force comparable to the Hets and significantly higher than the unconjugated PMO– and MOE-treated mice
same,number of CD68+ macrophages compared with the Hets,CD68+ macrophages,no significant difference
same,"uptake of PMO versus unconjugated PMO, mild SMA model (F0)",[2],significantly increased the uptake of PMO in the CNS and peripheral tissues
